According to US20140179896A1 (published 2014):

Biological target: T1, human vascular endothelial growth factor receptor-2 Fc chimera (KDR-Fc) (human, UniProt P35968 20-764)
T1 construct: range 1-764; also called human VEGFR-2; VEGF-R2-Fc; not shown: human IgG1 Fc
Assay: radioactive equilibrium binding, 1 nM KDR-Fc
Description: To prepare ³⁵S-labeled binding proteins for analysis, mRNA was prepared as described above for RNA-protein fusion production but the linker ligation step was omitted. The mRNA was expressed using rabbit reticulocyte lysate translation kit (Ambion) in the presence of ³⁵S-labeled Met at 30° C. for 1 hour. Expressed protein was purified on M2-agarose Flag beads (Sigma) as described above. This procedure produced the encoded protein without the nucleic acid tail. In a direct binding assay, VEGF-R2-Fc fusions in concentrations ranging from 0 to 200 nM were added to a constant concentration of the purified protein (0.2 or 0.5 nM) and incubated at 30° C. for 1 hour in buffer B. The receptor-binder complexes were captured using Protein A magnetic beads for another 10 minutes at room temperature using a Kingfisher™ The beads were washed with six reaction volumes of buffer B. The protein was eluted from the beads with 100 μL of 0.1 M KOH. […] of the reaction mixture and elution were dried onto a LumaPlate-96 (Packard) and the amount of ³⁵S on the plate was measured using a TopCount NXT instrument (Packard). The amount of fibronectin-based scaffold protein bound to the target was estimated as a percent of radioactivity eluted from Protein A magnetic beads compare to radioactivity in the reaction mixture. Nonspecific binding of fibronectin-based scaffold proteins to the beads was determined by measuring binding in the absence of KDR-Fc and represented less than 1-2% of the input. Specific binding was obtained through subtraction of nonspecific binding from total binding. Data was analyzed using the GraphPad Prizm software (GraphPad Software, Inc, San Diego, Calif.), fitted using a one site, non-linear binding equation.

T1 sequence (P35968 20-764 limits assumed, change not shown, form in doubt): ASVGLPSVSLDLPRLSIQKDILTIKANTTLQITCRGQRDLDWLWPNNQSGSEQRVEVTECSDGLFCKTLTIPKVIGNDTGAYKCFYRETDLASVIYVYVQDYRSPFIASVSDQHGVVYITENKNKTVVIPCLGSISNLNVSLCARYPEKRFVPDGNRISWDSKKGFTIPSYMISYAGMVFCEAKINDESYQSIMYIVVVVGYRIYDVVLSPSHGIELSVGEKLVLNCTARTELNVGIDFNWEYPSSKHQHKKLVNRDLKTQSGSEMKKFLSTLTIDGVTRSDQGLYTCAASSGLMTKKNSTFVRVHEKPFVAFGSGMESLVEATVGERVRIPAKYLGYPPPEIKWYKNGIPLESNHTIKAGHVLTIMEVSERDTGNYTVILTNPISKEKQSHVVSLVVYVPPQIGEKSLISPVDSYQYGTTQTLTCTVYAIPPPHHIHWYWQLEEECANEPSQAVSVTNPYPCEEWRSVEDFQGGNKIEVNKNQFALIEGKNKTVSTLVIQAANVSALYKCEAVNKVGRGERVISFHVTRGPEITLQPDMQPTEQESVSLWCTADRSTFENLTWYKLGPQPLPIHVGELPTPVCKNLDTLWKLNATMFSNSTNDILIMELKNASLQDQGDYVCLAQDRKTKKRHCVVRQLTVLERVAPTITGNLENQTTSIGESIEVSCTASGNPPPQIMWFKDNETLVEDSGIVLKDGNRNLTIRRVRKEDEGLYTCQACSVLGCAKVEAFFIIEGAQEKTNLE

B1: 2′Del G9 PR4 (designed binder)
chain: EVVAATPTSLLISWRHPHFPTRYYRITYGETGGNSPVQEFTVPLQPPTATISGLKPGVDYTITGYAVTVEQNGRELIIPISINYRT
notes: Del 1-8
Q: With B1 as the binder, how does the “Binding to 1 nM KDR, %” value read?
A: 33%

B2: 2′Del G11 PR4 (designed binder)
chain: EVVAATPTSLLISWRHPHFPTRYYRITYGETGGNSPVQEFTVPLQPPTATISGLKPGVDYTITGYAVTGGQMNRVLMTPISINYRT
notes: Del 1-8
Q: How did the “Binding to 1 nM KDR, %” value turn out when B2 was run?
A: 22%

B3: 2′Del H5 PR4 (designed binder)
chain: EVVAATPTSLLISWRHPHFPTRYYRITYGETGGNSPVQEFTVPLQPPTATISGLKPGVDYTITGYAVTLGKDVRELLTPISINYRT
notes: Del 1-8
Q: B3 was tested. Which “Binding to 1 nM KDR, %” value did it give?
A: 34%

B4: 2′Del H6 PR4 (designed binder)
chain: EVVAATPTSLLISWRHPHFPTRYYRITYGETGGNSPVQEFTVPLQPPTATISGLKPGVDYTITGYAVTTGHHDHELIIPISINYRT
notes: Del 1-8
Q: For B4, which “Binding to 1 nM KDR, %” value is on record?
A: 28%

B5: 2′Del H12 PR4 (designed binder)
chain: EVVAATPTSLLISWRHPHFPTRYYRITYGETGGNSPVQEFTVPLQPPTATISGLKPGVDYTITGYAVTAGGNGHELLTPISINYRT
notes: Del 1-8
Q: Which “Binding to 1 nM KDR, %” value does the source give for B5 here?
A: 24%

B6: 2′DelA5 PR4 (designed binder)
chain: EVVAATPTSLLISWRHPHFPTRYYRITYGETGGNSPVQEFTVPLQPPTATISGLKPGVDYTITGYAVTWNQNGQELFTPISINYRT
notes: Del 1-8
Q: For B6, which “Binding to 1 nM KDR, %” value is on record?
A: 20%

B7: 2′DelB7 PR4 (designed binder)
chain: EVVAATPTSLLISWRHPHFPTRYYRITYGETGGNSPVQEFTVPLQPPTATISGLKPGVDYTITGYAVTVGYNNRELLTPISINYRT
notes: Del 1-8
Q: B7 was tested. Which “Binding to 1 nM KDR, %” value did it give?
A: 32%

B8: 2′DelC3 PR4 (designed binder)
chain: EVVAATPTSLLISWRHPHFPTRYYRITYGETGGNSPVQEFTVPLQPPTATISGLKPGVDYTITGYAVTWAQNGRELLTPISINYRT
notes: Del 1-8
Q: With B8 as the binder, how does the “Binding to 1 nM KDR, %” value read?
A: 29%

B9: 2′DelC7 PR4 (designed binder)
chain: EVVAATPTSLLISWRHPHFPTRYYRITYGETGGNSPVQEFTVPLQPPTATISGLKPGVDYTITGYAVTWDQNGHVLLTPISINYRT
notes: Del 1-8
Q: With B9 as the binder, how does the “Binding to 1 nM KDR, %” value read?
A: 19%

B10: 2′DelE4 PR4 (designed binder)
chain: EVVAATPTSLLISWRHPHFPTRYYRITYGETGGNSPVQEFTVPLQPPTATISGLKPGVDYTITGYAVTVHWNGHELMTPISINYRT
notes: Del 1-8
Q: With B10 as the binder, how does the “Binding to 1 nM KDR, %” value read?
A: 34%

B11: 2′DelG5 PR4 (designed binder)
chain: EVVAATPTSLLISWRHPHFPTRYYRITYGETGGNSPVQEFTVPLQPPTATISGLKPGVDYTITGYAVTVGQNNHELLTPISINYRT
notes: Del 1-8
Q: For B11, which “Binding to 1 nM KDR, %” value is on record?
A: 19%

B12: 2′DelH4 PR4 (designed binder)
chain: EVVAATPTSLLISWRHPHFPTRYYRITYGETGGNSPVQEFTVPLQPPTATISGLKPGVDYTITGYAVTVGPNERMLMTPISINYRT
notes: Del 1-8
Q: Which “Binding to 1 nM KDR, %” value does the source give for B12 here?
A: 30%

B13: 2′DelH9 PR4 (designed binder)
chain: EVVAATPTSLLISWRHPHFPTRYYRITYGETGGNSPVQEFTVPLQPPTATISGLKPGVDYTITGYAVTVGWSGHELFVPISINYRT
notes: Del 1-8
Q: Which “Binding to 1 nM KDR, %” value does the source give for B13 here?
A: 20%

B14: 3A2 PR3 (designed binder)
chain: EVVAATPTSLLISWRHPHFPTRYYRITYGETGGNSPVQEFTVPLQPPTATISGLKPGVDYTITGYAVTWSQNNRELFTPISINYRT
notes: Del 1-8
Q: For B14, which “Binding to 1 nM KDR, %” value is on record?
A: 23%

B15: 3A3 PR3 (designed binder)
chain: EVVAATPTSLLISWRHPHFPTRYYRITYGETGGNSPVQEFTVPLQPPTATISGLKPGVDYTITGYAVTLAYNGREIITPISINYRT
notes: Del 1-8
Q: B15 was tested. Which “Binding to 1 nM KDR, %” value did it give?
A: 23%

B16: 3B4 PR3 (designed binder)
chain: EVVAATPTSLLISWRHPHFPTRYYRITYGETGGNSPVQEFTVPLQPPTATISGLKPGVDYTITGYAVTVGQNEHELLTPISINYRT
notes: Del 1-8
Q: With B16 as the binder, how does the “Binding to 1 nM KDR, %” value read?
A: 17%

B17: 3B5 PR3 (designed binder)
chain: EVVAATPTSLLISWRHPHFPTRYYRITYGETGGNSPVQEFTVPLQPPTATISGLKPGVDYTITGYAVTFGQNGHALLTPISINYRT
notes: Del 1-8
Q: How did the “Binding to 1 nM KDR, %” value turn out when B17 was run?
A: 20%

B18: 3C3 PR3 (designed binder)
chain: EVVAATPTSLLISWRHPHFPTRYYRITYGETGGNSPVQEFTVPLQPPTATISGLKPGVDYTITGYAVTMEQNGHELFTPISINYRT
notes: Del 1-8
Q: For B18, which “Binding to 1 nM KDR, %” value is on record?
A: 17%

B19: 3C7 PR3 (designed binder)
chain: EVVAATPTSLLISWRHPHFPTRYYRITYGETGGNSPVQEFTVPLQPPTATISGLKPGVDYTITGYAVTRGLNDGELLTPISINYRT
notes: Del 1-8
Q: B19 was tested. Which “Binding to 1 nM KDR, %” value did it give?
A: 20%

B20: 3C9 PR3 (designed binder)
chain: EVVAATPTSLLISWRHPHFPTRYYRITYGETGGNSPVQEFTVPLQPPTATISGLKPGVDYTITGYAVTLVRNDHELLTPISINYRT
notes: Del 1-8
Q: How did the “Binding to 1 nM KDR, %” value turn out when B20 was run?
A: 16%

B21: 3D12 PR3 (designed binder)
chain: EVVAATPTSLLISWRHPHFPTRYYRITYGETGGNSPVQEFTVPLQPPTATISGLKPGVDYTITGYAVTLGQNDRQLLVPISINYRT
notes: Del 1-8
Q: For B21, which “Binding to 1 nM KDR, %” value is on record?
A: 24%

B22: 3F8 PR3 (designed binder)
chain: EVVAATPTSLLISWRHPHFPTRYYRITYGETGGNSPVQEFTVPLQPPTATISGLKPGVDYTITGYAVTVAQNGHELKTPISINYRT
notes: Del 1-8
Q: With B22 as the binder, how does the “Binding to 1 nM KDR, %” value read?
A: 17%

B23: 3F10 PR3 (designed binder)
chain: EVVAATPTSLLISWRHPHFPTRYYRITYGETGGNSPVQEFTVPLQPPTATISGLKPGVDYTITGYAVTLAQDDHELLTPISINYRT
notes: Del 1-8
Q: How did the “Binding to 1 nM KDR, %” value turn out when B23 was run?
A: 16%

B24: 3G2 PR3 (designed binder)
chain: EVVAATPTSLLISWRHPHFPTRYYRITYGETGGNSPVQEFTVPLQPPTATISGLKPGVDYTITGYAVTFGPSDHVLLTPISINYRT
notes: Del 1-8
Q: How did the “Binding to 1 nM KDR, %” value turn out when B24 was run?
A: 20%

B25: 3′A6 PR4 (designed binder)
chain: EVVAATPTSLLISWRHPHFPTRYYRITYGETGGNSPVQEFTVPLQPPTATISGLKPGVDYTITGYAVTLAQNGHELLTPISINYRT
notes: Del 1-8
Q: With B25 as the binder, how does the “Binding to 1 nM KDR, %” value read?
A: 19%

B26: 3′A7 PR4 (designed binder)
chain: EVVAATPTSLLISWRHPHFPTRYYRITYGETGGNSPVQEFTVPLQPPTATISGLKPGVDYTITGYAVTLSDSGHALFTPISINYRT
notes: Del 1-8
Q: How did the “Binding to 1 nM KDR, %” value turn out when B26 was run?
A: 34%

B27: 3′A8 PR4 (designed binder)
chain: EVVAATPTSLLISWRHPHFPTRYYRITYGETGGNSPVQEFTVPLQPPTATISGLKPGVDYTITGYAVTVAWDDHELLTPISINYRT
notes: Del 1-8
Q: How did the “Binding to 1 nM KDR, %” value turn out when B27 was run?
A: 27%

B28: 3′A9 PR4 (designed binder)
chain: EVVAATPTSLLISWRHPHFPTRYYRITYGETGGNSPVQEFTVPLQPPTATISGLKPGVDYTITGYAVTLAHNDRELLTPISINYRT
notes: Del 1-8
Q: B28 was tested. Which “Binding to 1 nM KDR, %” value did it give?
A: 25%

B29: 3′B1 PR4 (designed binder)
chain: EVVAATPTSLLISWRHPHFPTRYYRITYGETGGNSPVQEFTVPLQPPTATISGLKPGVDYTITGYAVTEARNGRELLTPISINYRT
notes: Del 1-8
Q: Which “Binding to 1 nM KDR, %” value does the source give for B29 here?
A: 25%

B30: 3′B2 PR4 (designed binder)
chain: EVVAATPTSLLISWRHPHFPTRYYRITYGETGGNSPVQEFTVPLQPPTATISGLKPGVDYTITGYAVTVGRNDRELLTPISINYRT
notes: Del 1-8
Q: With B30 as the binder, how does the “Binding to 1 nM KDR, %” value read?
A: 29%

B31: 3′B4 PR4 (designed binder)
chain: EVVAATPTSLLISWRHPHFPTRYYRITYGETGGNSPVQEFTVPLQPPTATISGLKPGVDYTITGYAVTVAWNGHELMTPISINYRT
notes: Del 1-8
Q: Which “Binding to 1 nM KDR, %” value does the source give for B31 here?
A: 38%

B32: 3′B8 PR4 (designed binder)
chain: EVVAATPTSLLISWRHPHFPTRYYRITYGETGGNSPVQEFTVPLQPPTATISGLKPGVDYTITGYAVTLGYHDHALFTPISINYRT
notes: Del 1-8
Q: For B32, which “Binding to 1 nM KDR, %” value is on record?
A: 14%

B33: 3′B10 PR4 (designed binder)
chain: EVVAATPTSLLISWRHPHFPTRYYRITYGETGGNSPVQEFTVPLQPPTATISGLKPGVDYTITGYAVTLAQTGRELLTPISINYRT
notes: Del 1-8
Q: B33 was tested. Which “Binding to 1 nM KDR, %” value did it give?
A: 21%

B34: 3′B11 PR4 (designed binder)
chain: EVVAATPTSLLISWRHPHFPTRYYRITYGETGGNSPVQEFTVPLQPPTATISGLKPGVDYTITGYAVTETWNDHEIRTPISINYRT
notes: Del 1-8
Q: For B34, which “Binding to 1 nM KDR, %” value is on record?
A: 23%

B35: 3′B12 PR4 (designed binder)
chain: EVVAATPTSLLISWRHPHFPTRYYRITYGETGGNSPVQEFTVPLQPPTATISGLKPGVDYTITGYAVTVAHENRELLTPISINYRT
notes: Del 1-8
Q: How did the “Binding to 1 nM KDR, %” value turn out when B35 was run?
A: 28%

B36: 3′C3 PR4 (designed binder)
chain: EVVAATPTSLLISWRHPHFPTRYYRITYGETGGNSPVQEFTVPLQPPTATISGLKPGVDYTITGYAVTMAQNGHALFTPISINYRT
notes: Del 1-8
Q: Which “Binding to 1 nM KDR, %” value does the source give for B36 here?
A: 32%
